The results in this text go back to PMC8938504.

For experiment [1], the target named is MBP:RGA5_HMAm1m2 (rice (Oryza sativa)) (UniProt F7J0N2). The experiment is described as follows: SPR; […] (single-cycle kinetics, […]; 25 °C; 20 mM Tris pH 8, 150 mM NaCl, 0.5 mM DTT; […]. On the technique in general: In SPR one partner is held on a chip, and binding of the other changes the refractive index at the surface.
Experiment [2] addresses MBP:RGA5_HMA (wild-type HMA domain of RGA5 fused to maltose-binding protein) (rice (Oryza sativa)) (UniProt F7J0N2). The experiment in a line: SPR; single-cycle kinetic titration, Biacore T200, 25 °C; […]; 20 mM Tris pH 8, 150 mM NaCl, 0.5 mM DTT, 0.05% P20; steady-state model.
The next experiment concerns the target the engineered RGA5_HMAs. The experiment is described as follows: SPR; […] (single-cycle kinetics, […]; 25 °C; 20 mM Tris pH 8, 150 mM NaCl, 0.5 mM DTT; […].

For orientation: Kd means the constant that tells how readily two partners part at equilibrium. Regarding 6×His-tagged AVR-Pia (natural protein), the Kd in experiment [1] was found to be 5.9 µM. Regarding “AVR-PikD (dSP-AVR-PikD, His-tagged) (natural protein)”, in experiment [2], the Kd is 8.32 µM. Regarding “6×His-tagged AVR-PikD (from UniProt C4B8B8 22-113) (natural protein)”, in the experiment with the engineered RGA5_HMAs, the Kd lay within 0.0005 to 0.0016 µM. Take “6×His-tagged AVR1-CO39 (natural protein)”: the Kd in experiment [1] came to 6.3 µM.
